The source of these data is patent US20240018260A1 (AMUNIX PHARMACEUTICALS, published 2024).

Assay [1] concerns the target T1, human EpCAM on EpCAM positive human carcinoma cells (SW480, SK-OV-3) (human, UniProt P16422 24-314).
T1 sequence (looked up): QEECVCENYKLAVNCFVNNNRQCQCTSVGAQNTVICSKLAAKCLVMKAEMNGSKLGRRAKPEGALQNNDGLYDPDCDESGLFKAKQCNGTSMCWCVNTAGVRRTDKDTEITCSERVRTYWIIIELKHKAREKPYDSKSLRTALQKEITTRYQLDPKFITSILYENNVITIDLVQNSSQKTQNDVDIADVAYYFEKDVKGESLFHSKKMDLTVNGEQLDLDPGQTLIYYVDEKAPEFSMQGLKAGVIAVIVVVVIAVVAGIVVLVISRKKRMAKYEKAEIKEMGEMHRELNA
Put plainly: cell-based or functional assay.

The target of assay [2] is human CD3 on purified human CD3 positive T cells (human, UniProt P07766 23-207). Put plainly: cell-based or functional assay.
The target in assay [3] is T2, recombinant human CD3 (rhCD3εδ) (human, UniProt P07766 23-126; P04234 22-105).
T2 chain: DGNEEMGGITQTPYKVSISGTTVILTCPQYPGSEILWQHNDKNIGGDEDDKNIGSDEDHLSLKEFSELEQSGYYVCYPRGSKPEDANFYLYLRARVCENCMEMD
As to the kind of experiment: sandwich ELISA: rhCD3εδ coated on plate, detection with peroxidase-conjugated protein L.

Assay [4] addresses T3, recombinant human EpCAM (rhEpCAM) (human, UniProt P16422 24-265).
T3 construct: Bought recombinant protein coated on the ELISA plate
T3 sequence (looked up): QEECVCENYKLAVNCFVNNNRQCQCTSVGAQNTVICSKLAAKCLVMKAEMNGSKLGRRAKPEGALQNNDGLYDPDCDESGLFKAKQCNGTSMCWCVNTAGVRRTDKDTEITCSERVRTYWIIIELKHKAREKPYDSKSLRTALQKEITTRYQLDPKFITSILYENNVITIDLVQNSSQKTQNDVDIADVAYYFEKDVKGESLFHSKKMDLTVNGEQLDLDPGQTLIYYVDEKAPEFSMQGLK
As to the kind of experiment: sandwich ELISA: rhEpCAM coated on plate, detection with biotin-conjugated protein L. The procedure: (§1) The binding specificity of an anti-EpCAM×anti-CD3 ProTIA (e.g. AC1476) was evaluated in conjunction with the control ProTIA compositions anti-CEA×anti-CD3 ProTIA (e.g. AC1432) and anti-HER2×anti-CD3 ProTIA (e.g. AC1408), in a target antigen/biotin-conjugated protein-L sandwich ELISA. Both the anti-CEA×anti-CD3 ProTIA (AC1432) and the anti-HER2×anti-CD3 ProTIA (AC1408) bear the same anti-CD3 scFv component as the anti-EpCAM×anti-CD3 ProTIA (AC1476) albeit with different targeting component. In the ELISA binding assay, recombinant human EpCAM (rhEpCAM) (R&D Systems cat #960-EP-50), recombinant human CEA (Abcam cat #ab742) and recombinant human HER2 (AcroBiosystems cat #HE2-H525) were coated on a 96-well, flat-bottomed plate at a concentration of 0.1 microg/100 microL. After overnight incubation at 4° C., the assay plate was washed and blocked with 3% bovine serum albumin (BSA) for 1 h at room temperature. The plate was washed again followed by the introduction of a dose range (0.0007 to 0.5 nM, achieved with a 1:3 fold serial dilution scheme from a starting concentration of 0.5 nM) of protease-treated anti-EpCAM×anti-CD3 ProTIA (e.g. AC1476) to EpCAM-coated wells, CEA-coated wells and HER2-coated wells. […] After desired color intensity was reached, 0.2 N sulfuric acid was added to stop the reaction and absorbance (OD) was measured at 450 nm using a spectrophotometer. […]

Assay [5] has as its target T3, recombinant human EpCAM (rhEpCAM). Put plainly: sandwich ELISA: rhEpCAM coated on plate, detection with peroxidase-conjugated protein L. The procedure:
The binding capability of anti-EpCAM×anti-CD3 ProTIA composition was verified with an EpCAM/peroxidase-conjugated protein-L sandwich ELISA. In the ELISA binding assay, recombinant human EpCAM (rhEpCAM) (Sino BiologicalR&D Systems cat #10694-H08H960-EP-50) was coated on a 96-well, flat-bottomed plate at a concentration of 0.1 microg/100 microL. After overnight incubation at 4° C., the assay plate was washed and blocked with 3% bovine serum albumin (BSA) for 1 h at room temperature. The plate was washed again followed by the introduction of a dose range of non-cleavable anti-EpCAM×anti-CD3 ProTIA (i.e., a ProTIA without the release segment cleavage sequence and AC1484, a ProTIA chimeric polypeptide assembly composition) and protease-treated and protease-untreated anti-EpCAM×anti-CD3 ProTIA (e.g. AC1476). The dose range utilized for non-cleavable and protease-treated and untreated ProTIA was 0.0006 to 5 nM, achieved with a 1:6 fold serial dilution scheme from a starting concentration of 5 nM. The plate was allowed to incubate with shaking for 1 h at room temperature to allow the non-cleavable, protease-cleaved and uncleaved ProTIA to bind to the rhEpCAM coated on the plate. Unbound components were removed with a wash step and a peroxidase-conjugated protein L (PierceThermoFisher Scientific cat #32420) was added. After an appropriate incubation period that allowed protein-L to bind to the kappa light of the scFvs, any unbound reagent was removed by a wash step followed by the addition of tetramethylbenzidine (TMB) substrate to each well. TMB is a chromogenic substrate of peroxidase. After desired color intensity was reached, 0.2 N sulfuric acid was added to stop the reaction and absorbance (OD) was measured at 450 nm using a spectrophotometer. The intensity of the color is proportional to the concentration of non-cleavable, protease-treated and untreated anti-EpCAM×anti-CD3 ProTIA captured by the rhEpCAM/protein-L sandwich ELISA. The intensity of the color produced (measured OD) was plotted against protein concentration; and the concentration of non-cleavable, protease-cleaved and uncleaved anti-EpCAM×anti-CD3 ProTIA that gave half-maximal response (EC₅₀) was derived with a 4-parameter logistic regression equation using GraphPad prism software.

The target in another assay is T4, recombinant human CEA (human, UniProt P06731 35-685, limits assumed).
T4 construct: Coated on the ELISA plate; also called CEA antigen
T4 sequence (looked up): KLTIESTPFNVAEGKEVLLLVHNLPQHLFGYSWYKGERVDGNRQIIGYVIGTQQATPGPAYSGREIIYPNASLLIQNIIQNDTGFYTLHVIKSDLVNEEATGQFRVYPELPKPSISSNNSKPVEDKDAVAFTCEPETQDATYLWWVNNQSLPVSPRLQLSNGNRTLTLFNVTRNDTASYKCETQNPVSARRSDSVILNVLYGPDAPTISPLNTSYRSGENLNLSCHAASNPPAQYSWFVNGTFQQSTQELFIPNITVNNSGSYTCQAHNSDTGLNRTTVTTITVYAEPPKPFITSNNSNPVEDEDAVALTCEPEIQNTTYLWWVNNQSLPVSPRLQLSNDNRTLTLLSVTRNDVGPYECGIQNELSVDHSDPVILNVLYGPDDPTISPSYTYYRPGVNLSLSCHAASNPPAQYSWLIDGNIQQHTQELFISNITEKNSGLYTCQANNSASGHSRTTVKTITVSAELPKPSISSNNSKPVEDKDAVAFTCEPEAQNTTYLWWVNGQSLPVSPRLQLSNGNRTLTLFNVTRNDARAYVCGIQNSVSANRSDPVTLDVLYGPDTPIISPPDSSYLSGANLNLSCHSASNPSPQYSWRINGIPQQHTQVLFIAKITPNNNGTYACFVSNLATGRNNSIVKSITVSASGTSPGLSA
As to the kind of experiment: sandwich ELISA: antigen coated on plate, detection with biotin-conjugated protein L. As to the method: as §1

For another assay, the target named is T5, recombinant human HER2 (human, UniProt P04626 23-652).
T5 construct: Coated on the ELISA plate; also called HER2 antigen
The assay is described as above. The procedure: as §1

B1: Protease-treated (MMP-9 cleaved) AC1476 anti-EpCAM×anti-CD3 ProTIA, released aEpCAM-aCD3 first portion (bispecific antibody)
chain: DIQMTQSPSSLSASVGDRVTITCRSTKSLLHSNGITYLYWYQQKPGKAPKLLIYQMSNLASGVPSRFSSSGSGTDFTLTISSLQPEDFATYYCAQNLEIPRTFGQGTKVEIKGATPPETGAETESPGETTGGSAESEPPGEGQVQLVQSGPGLVQPGGSVRISCAASGYTFTNYGMNWVKQAPGKGLEWMGWINTYTGESTYADSFKGRFTFSLDTSASAAYLQINSLRAEDTAVYYCARFAIKGDYWGQGTLLTVSSGGGGSDIQMTQSPSSLSASVGDRVTITCRASQDIRNYLNWYQQKPGKAPKLLIYYTSRLESGVPSRFSGSGSGTDYTLTISSLQPEDFATYYCQQGNTLPWTFGQGTKVEIKGATPPETGAETESPGETTGGSAESEPPGEGEVQLVESGGGLVQPGGSLRLSCAASGYSFTGYTMNWVRQAPGKGLEWVALINPYKGVSTYNQKFKDRFTISVDKSKNTAYLQMNSLRAEDTAVYYCARSGYYGDSDWYFDVWGQGTLVTVSSGTAEAASASGLSGRSDNHSPLG
notes: ESI-MS found 58,071 Da against a theoretical 58,067 Da; also called ProTIA-A; protease-treated anti-EpCAM×anti-CD3 ProTIA
Turning to B1, in assay [1], the “EC50, LDH release cytotoxicity, PBMC:SK-OV-3 5:1” value worked out at 0.003 nM. Moreover, the “EC50, LDH release cytotoxicity, purified human CD3 positive T cells:OVCAR-3 5:1” value in assay [2] was 0.0003 nM. Also, the “EC50, LDH release cytotoxicity, purified human CD3 positive T cells:SK-OV-3 5:1” value in assay [2] came out at 0.0024 nM. Further, the EC50 came to 0.31 nM in assay [3], 0.11 nM in assay [4] and 0.12 nM in assay [5]. The binding result with recombinant human CEA and with recombinant human HER2 was “no binding (tested: 0.0007 to 0.5 nM (dose range tested))” throughout.
